No end group written: not given here.
target: human GLP-1 receptor (human, UniProt P43220); test: cell-based or functional assay

| Binder | GLP-1 Receptor Activation (relative to GLP-1(7-37)OH) [relative potency] |
| --- | --- |
| HVEGTFTSDVSSYKEGQAAKEFIAWLVKGRG [Val^8-Lys^20-GLP-1(7-37)OH] | 0.33 |
| HVEGTFTSDVSSYLEGQAAKEFISWLVKGRG [Val^8-Ser^30-GLP-1(7-37)OH] | 0.19 |
| HVEGTFTSDVSSYLEGQKAKEFIAWLVKGRG [Val^8-Lys^24-GLP-1(7-37)OH] | 0.02 |
| HVEGAFTSDVSSYLEGQAAKEFIAWLVKGRG [Val^8-Ala^11-GLP-1(7-37)OH] | 0.021 |
| HVEGTFTSDVSSYLESQAAKEFIAWLVKGRG [Val^8-Ser^22-GLP-1(7-37)OH] | 0.5 |
| HVEGTFTSDVSSYLEKQAAKEFIAWLVKGRG [Val^8-Lys^22-GLP-1(7-37)OH] | 0.58 |
| HVEGTFTSDVSSYLEKQAAKEFIEWLVKGRG [Val^8-Lys^22-Glu^30-GLP-1(7-37)OH] | 0.37 |
| HVEGTFTSDVSSYLEGQAAKEFIAWLVKGHG [Val^8-His^36-GLP-1(7-37)OH] | 0.22 |
| HVEGTFTSDVSSYLEGQAAKEFIAWLAKGRG [Val^8-Ala^33-GLP-1(7-37)OH] | 0.1 |
| HVEGTFTSDVSSYLEGQAAKEFIAWLVKGEG [Val^8-Glu^36-GLP-1(7-37)OH] | 0.11 |
| HVEGTFTSDVSSYLEGQAAKEFIHWLVKGRG [Val^8-His^30-GLP-1(7-37)OH] | 0.19 |
| HVEGTFTSDVSSYLEGQAAKEFIAWLVKHRG [Val^8-His^35-GLP-1(7-37)OH] | 0.41 |
| HGEGHFTSDVSSYLEGQAAKEFIAWLVKGRG [Gly^8-His^11-GLP-1(7-37)OH] | 0.282 |
| HVEGTFTSDVSSYLEKEAAKEFIAWLVKGRG [Val^8-Lys^22-Glu^23-GLP-1(7-37)OH] | 0.35 |
| HVEGTFTSDVSSYLEDQAAKEFIAWLVKGRG [Val^8-Asp^22-GLP-1(7-37)OH] | 0.4 |
| HVEGTFTSDVSSYLEHQAAKEFIAWLVKGRG [Val^8-His^22-GLP-1(7-37)OH] | 0.14 |
| HVEGTFTSDVSSYLEGQAAKHFIAWLVKGRG [Val^8-His^27-GLP-1(7-37)OH] | 0.37 |
| HVEGTFTSDVSSYLEGQAAKEFIAWLVKERG [Val^8-Glu^35-GLP-1(7-37)OH] | 0.15 |
| HVEGTFTSDVSSYLEGQAAKEFIAWLKVGRG [Val^8-Lys^33-Val^34-GLP-1(7-37)OH] | 0.08 |
| HVEGTFTSDLSSYLEGQAAEEFIAWLVKGRG [Val^8-Leu^16-Glu^26-GLP-1(7-37)OH] | 0.23 |
| HVEGTFTSDVSSYLEGQAAKEFIAWLVKGRH [Val^8-His^37-GLP-1(7-37)OH] | 0.33 |

| Binder | GLP-1 Receptor Activation (relative to GLP-1(7-37)OH) [relative potency] |
| --- | --- |
| HGEGTFTSDVSSYLEGQAAKEFIEWLVKGRG [Gly^8-Glu^30-GLP-1(7-37)OH] | 0.29 |
| HVEGTFTSDVSSYLEGQAAKEFIAWLGKGRG [Val^8-Gly^33-GLP-1(7-37)OH] | 0.01 |
| HVEGTFTSDVSSYLEEKAAKEFIAWLVKGRG [Val^8-Glu^22-Lys^23-GLP-1(7-37)OH] | 1.43 |
| HVEGTFTSDVSSYLEGKAAKEFIAWLVKGRG [Val^8-Lys^23-GLP-1(7-37)OH] | 0.18 |
| HVEGTFTSDVSSYLEGQHAKEFIAWLVKGRG [Val^8-His^24-GLP-1(7-37)OH] | 0.007 |
| HVEGTFTSDVSSYLEGQAAKEFIAWLVEGRG [Val^8-Glu^34-GLP-1(7-37)OH] | 0.17 |
| HVEGTFTSDVSSYLEGQAAEEFIAWLVKGRG [Val^8-Glu^26-GLP-1(7-37)OH] | 1.5 |
| HVEGTFTSDVSSYLEGQAAKEFIAWLEKGRG [Val^8-Glu^33-GLP-1(7-37)OH] | 0.039 |
| HVEGTFTSDVSSYLEGQAAHEFIAWLVKGRG [Val^8-His^26-GLP-1(7-37)OH] | 1.6 |
| HVEGTFTSDVSSYLEAQAAKEFIAWLVKGRG [Val^8-Ala^22-GLP-1(7-37)OH] | 0.56 |
| HVEGTFTSDVSSYLEGQAAKEFIAWLVKPRG [Val^8-Pro^35-GLP-1(7-37)OH] | 0.094 |
| HVEGTFTSDVSSYLEEQAAKEFIAWLVKGRG [Val^8-Glu^22-GLP-1(7-37)OH] | 1.29 |
| HVEGTFTSDVSSYLEGQAAKEFIEWLVKGRG [Val^8-Glu^30-GLP-1(7-37)OH] | 0.29 |
| HVEGTFTSDVSSYLEGQAAKEFIAWLKNGRG [Val^8-Lys^33-Asn^34-GLP-1(7-37)OH] | 0.09 |
| HVEGTFTSDVSSYLEPQAAKEFIAWLVKGRG [Val^8-Pro^22-GLP-1(7-37)OH] | 0.01 |
| HAEGTFTSDVSSYLEQQAAKEFIAWLVKGRG [Gln^22-GLP-1(7-37)OH] | 0.42 |
| HVEGTFTSDVSSYLEGQAAKEFIAWLVGKRG [Val^8-Gly^34-Lys^35-GLP-1(7-37)OH] | 0.34 |
| HVEGTFTSDVSSYLEGQAAKEFIDWLVKGRG [Val^8-Asp^30-GLP-1(7-37)OH] | 0.15 |
| HVEGTFTSDVSSYLEEQAAKEFIAWLVKGR-NH2 [Val^8-Glu^22-GLP-1(7-36)NH2] | 1 |
| HVEGTFTSDVSSYLEKQAAKEFIAWLVKGR-NH2 [Val^8-Lys^22-GLP-1(7-36)NH2] | 0.53 |
